Assay results: patent publication US11781164B2, “Demethylation of reticuline and derivatives thereof with fungal cytochrome P450” (priority 2017, dated 2023)

What was measured:
[1] = system: thebaine; assay: Bioconversion of thebaine (N-demethylation to northebaine) by S. cerevisiae expressing cytochrome P450s and CPRs, LC-MS; settings: for activity towards thebaine, converting it to northebaine: co-expressed with CPR_DN5866_c0_g1_i1_Cd9, CPR_DN10898_c0_g1_i1_1A or Cel_CPR_co (at least one of the tested CPRs)
[2] = system: oripavine; assay: Bioconversion of oripavine (N-demethylation to nororipavine) by S. cerevisiae expressing cytochrome P450s and CPRs, LC-MS; settings: pH 7, 72 h; for nororipavine production when oripavine was administered: co-expressed with CPR_DN5866_c0_g1_i1_Cd9, CPR_DN10898_c0_g1_i1_1A or Cel_CPR_co
[3] = system: thebaine; assay: In planta conversion of thebaine by transient expression of demethylases and CPRs in Nicotiana benthamiana leaves; settings: co-expressed with CPR_DN10898_c0_g1_i1_co or Cel_CPR_co; leaves re-infiltrated with 0.5 mM thebaine after 4 days, measured 1 day after

B1: LCOR_01865_co: codon-optimized putative cytochrome P450 A0A068RKI7 from Lichtheimia corymbifera (protein, listed as Lichtheimia corymbifera)
chain: MTEIKDHIYRYRHYIGVAAAVLLVCQQVYHRIFRIPKNLRHLPAIPYGKQLKALQSQENLISRTQRLVFPLLPKAHGVYLNRMPFQWTIYVADPEIARIVFFKPEFANKTSSVLDSIDQNTTLIEFVGNDNVSIVNGHHWKDQRKIMNPAFHRATPVGMFGSLMPKVFRLVEEQPTVPVLELMQKLTLDALGKSVFGFDFGGLDDPDSVWVKTYRLLFDGFTNVIPLVFPRLDGLYRYFSAKRRAQHDAVYKLIDLLDGVADKKRSMLQDDSNSHNDVPEHEKDLLQLMLEAELRGEGNWTKKELRHNMAIFFVAGHDTTSHALTFCLYLLAMNQDIQKKAREEILRVLGDEPKDVFPTLEDCKKLDYLDMVIKESMRIYPPANDILARDVHEDLNVKGIFIPKGAMVSVDIQALHHRPDLWHEPEKFNPDRFLPGGEHDSHEGIAYAPFSSGARQCIALKFSIMQQRVVLAMLLRKFEWELPKESKHKDGIQFEIPFNLAPKDLELIFHKRY
modifications: codon-optimized
activity towards thebaine, converting it to northebaine ([1]; 0.5 mM thebaine, pH 7, 72 h): displayed activity towards thebaine
nororipavine production when oripavine was administered ([2]; 0.5 mM oripavine): capable of producing nororipavine

B2: Ps_CODM_co: O-demethylase D4N502 from Papaver somniferum, codon optimized; positive control (protein, listed as Papaver somniferum)
chain: METPILIKLGNGLSIPSVQELAKLTLAEIPSRYTCTGESPLNNIGASVTDDETVPVIDLQNLLSPEPVVGKLELDKLHSACKEWGFFQLVNHGVDALLMDNIKSEIKGFFNLPMNEKTKYGQQDGDFEGFGQPYIESEDQRLDWTEVFSMLSLPLHLRKPHLFPELPLPFRETLESYLSKMKKLSTVVFEMLEKSLQLVEIKGMTDLFEDGLQTMRMNYYPPCPRPELVLGLTSHSDFSGLTILLQLNEVEGLQIRKEERWISIKPLPDAFIVNVGDILEIMTNGIYRSVEHRAVVNSTKERLSIATFHDSKLESEIGPISSLVTPETPALFKRGRYEDILKENLSRKLDGKSFLDYMRM
modifications: codon-optimized
conversion of thebaine into oripavine in N. benthamiana leaves vs negative control [3]: capable of converting thebaine into oripavine
northebaine levels in N. benthamiana leaves vs negative P19 control [3]: not apparent

B3: P450_DN15259_c0_g1_i7_A: native cytochrome P450 clone from Thamnostylum piriforme (plasmid pEV31541) (protein)
chain: MDNKAILRQAVYSYRYHIGIAAAVAIVCQQIYSRVFRVPKNLRHIPAISYWSQMKALLKKEAITPRTKRLVYPLLSKANGLYLNRMPFDWTVYVANPMIAKTVLFKPEFATKMSLIGSFSDDSAVLQFVGKDNIAVSNGHQWKKQRKIMNPAFHRSMPVALFASLMPKVFCMIDETQENGDSVGAIQLMQALTLEALGKAVFGFDFGGLDDKNSVWVKTYNEVFKAFTDFTVFLPRLNAFLRRVSPPHRSRHREMLKLIGLLDEMVDKKRQALLDAKNKSVEKVPEHEKDLLTLMLEAEMDGEGVWEKEELRHNIGILFVAGHDTTANSLAFAVYNLAVNKDVQDKARKEIIDLLGDEPKDVAPTLDDCKHMDYIDMIIKETLRMNAPANDLLARIASEDLELGGVLIPKGTMVSVDFHALHLHPDLWEDSERFNPQRFQDNGEHSKHEGVTWVPFSGGSRQCIGINFSMMEQRVALSTLLRKYEWELPADSIHRNGLVMDQPFSFAPSSLKIKFKKRY
modifications: Thamnostylum piriforme
thebaine N-demethylation (northebaine), screening of T. piriforme P450 candidates ([1]; 0.1 mM thebaine, non-buffered SC-His-Leu-Ura, with CPRs from C. elegans, G. fujikuroi and S. cerevisiae, 72 h, 30° C.): identified as a thebaine N-demethylase
increase in northebaine titers on increasing thebaine concentration to 0.5 mM ([1]; 0.1 vs 0.5 mM thebaine, pH 7, 72 h, with Cel_CPR_co, CPR_DN5866_c0_g1_Cd9 or CPR_DN10898_c0_g1_1A): 50%
oripavine N-demethylation (nororipavine) ([2]; detected only when feeding 0.5 mM oripavine, with Cel_CPR_co, CPR_DN5866_c0_g1_Cd9 or CPR_DN10898_c0_g1_1A): able to N-demethylate oripavine
nororipavine titers lower than those of northebaine ([2]; thebaine or oripavine fed): 20 fold

B4: Ar_ORZ22410_co: codon-optimized putative cytochrome P450 A0A1X2IUG5 from Absidia repens (protein, listed as Absidia repens)
chain: MNKLFPVGTSNKKKAVLLSLGATVALICRAIYRIYYVPRSLRHIPSVGYFRLIRSILRREDATTRARTVYGPAIKKGNGIYLANFPITWSVFVSSPIAAKSVLMKTDNFPKSMEIFHALGKENPVVRFFGIDNVAIVNGEKWKKQRKVMNPAFHRAMPVQMFGRLMLKGFKNIEKQDYQVPILDFFQRLTLDALGIAGFGFDFHSVDDPESIWTKTYENVRLGLRSPFSFLFPSMDWLLKYIIPGRKELDKSVDKLNALLMSMAQERRLQVRASIDDNVPDSEKDLLTLMLEAELRGEGTASDEQLRSNLAVFFLAGHETTANTMSFCLYNLAMNKEVQSKARQEVLTVLGDEPVDILPQIDELRQMPYIDMVLKENLRRFGPASMLIARKSQEDFDLNGVFIPKNTPVVVETHALHHNPDVWKNPEQFDPERFAPGGEHETCHEGMAWLPFSSGSRGCLGMNFSLAEQRTFLVMLLRKYEWELPEDSIHRNGVKIQNFQNAAPESLEIKFSSRY
activity towards thebaine, converting it to northebaine ([1]; 0.5 mM thebaine, pH 7, 72 h): displayed activity towards thebaine
nororipavine production when oripavine was administered ([2]; 0.5 mM oripavine): capable of producing nororipavine

B5: LCOR_09548_co: codon-optimized putative cytochrome P450 A0A068S8J3 from Lichtheimia corymbifera (protein, listed as Lichtheimia corymbifera)
chain: MSSLNILSLLDNKHINAFFDNPSRAQSGIIAGSVAIVSLCAAYSLGSRLRGSNNGVPLVPYTFPIIGSTKEYQADPQAFIEKWTAKLGPVFRVHLFGRIHTVVSDRYVREVFLNNDFDFLKGTGKRFDTLLLTDTTLEDVDIEVFRTVVMKHLTKEMKHYTPRVVEHLTAGGDEKLGDATEPKELVHLFPLLQHMVAKASASIFVGTELAADDAVVETCKNIAIDIGSELGPSSYIMDAFPSLARLRMWYIGKYGKAINKHRQHLLHALGPVIDKRLAAAEKGGDWDRPQDILQDIIETINLTLDNPKRHILPVKWLLALFFASIHTTSENSTIVLYRIMQNPEIIDVLLEEQNEILEKHYGTNIDYSDTTKLFTGEVIKEMVKLDSVCREAMRSRNSYLELPHTYVGKSRITLSCGAVIEPGHDVLINMWGNHRDAKIQRDTIGDHHDFKPFRFVGLDRQSTKIGDDFLMFGQGRHACPGRWFAIQEIKTIVSVLIRYYKLTPKGPITFPTHPRMPMPTGEVIIQRRQE
modifications: codon-optimized
nororipavine production when oripavine was administered ([2]; 0.5 mM oripavine): capable of producing nororipavine

B6: P450_DN5615_c2 g1_i9_co: codon-optimized cytochrome P450 candidate from Cunninghamella echinulata (protein, listed as Cunninghamella echinulata)
chain: MSQFISTISQYWDVNNFIDQQAWSRFYETYLLKYTDSKAKRLTIGVSVSLLLLGYGIKRLLTPPKHLRHIKHASFLRFTYNFVIKGVTPKEMHTTVSKKIVEENNGFYLQLERTGWVVYVANPEAVKQVLLKSDIFPKMDFSKLASEEGSYFEKFIGFKNILMTTGSEWLKHRKLTNPAFHRSLPAKLFGETAQGLFKIWDNEYNDKPFEVNIHNMNERITLDIIGKAGFAFDFNAVADEKSPWKKTYDIINTAASDPLFFMFPILENKLLWLFPKRQESFKKLDEWKAMLTSVIENKRRLLKDNIDQGVEEAEKDLLTLMIESEFRGEGVLTKEELIGNLTVFFLAGHDTTSFALTSAIYYMARYPEIQEKARQEVNSILCPNGEPNEGILPTIEDTKKLVYLNQIMKESMRIGNPVLFLLSPRQATKDFNLNGTFIPKGTQVNINIHDLHHSSNVWDDPDTFNPDRFAPGGEADKKTGIAWVPFSNGSRQCLGMNFSLLEQRVILSCLLRKYEWTLPENSIHKNDMISKFDLIPSPIDMKIRFERRY
modifications: codon-optimized
demethylase activity towards thebaine (northebaine), C. echinulata P450 candidates ([1]; 0.5 mM thebaine, pH 7, 72 h, co-expressed with Cel_CPR): displayed demethylase activity towards thebaine and oripavine
demethylase activity towards oripavine (nororipavine), C. echinulata P450 candidates ([2]; 0.5 mM oripavine, co-expressed with Cel_CPR): displayed demethylase activity towards thebaine and oripavine
